{
  "source": "the PETadex activity labels (doi:10.1038/s41467-025-61599-z)",
  "proteins": {"B1": {"name": "unnamed (protein)", "chain": "MRIRQALVAFCAAIAMVVAGPSYASALDSPYQRGPDPTEASVKAIAGPFAVDQVKATGHTGFGSGTIFYPKDEKGTFGTIAVSPGFISPEGLVHWYAKTLASHGFVVMAMGTFTVADPPPSRGDQLRAALDYMKTKSPVKDKVDPTRLGLSGHSMGGGGTLDAASKMPDLKAAVPLAPWYLTGGPVIPKVKAPTLVVGANIDFVAPMAIFATPFYKALTSPNKALLTLPGDHMTPFLLANPTLTKFAVSWFKRFLDDDTRYDQFLCPNPASYEGTCPLT"}, "B2": {"name": "unnamed (protein)", "chain": "MQTNPYARGPNPTAASLEASAGPFTVRSFTVSRPSGYGAGTVYYPTNAGGTVGAIAIVPGYTARQSSIKWWGPRLASHGFVVITIDTNSTLDQPESRSSQQMAALRQVASLNGTSSSPIYGKVDTARMGVMGWSMGGGGSLISAANNPSLKAAAPQAPWHSSTNFSSVTVPTLIFACENDSIAPVNSSALPIYDSMSQNAKQFLEIKGGSHSCANSGNSNQALIGKKGVAWMKRFMDNDTRYSTFACENPNSTAVSDFRTANCS"}, "B3": {"name": "unnamed (protein)", "chain": "MDGVLWRVRTAALMAALLALAAWALVWASPSVEAQSNPYQRGPNPTRSALTADGPFSVATYTVSRLSVSGFGGGVIYYPTGTSLTFGGIAMSPGYTADASSLAWLGRRLASHGFVVLVINTNSRFDYPDSRASQLSAALNYLRTSSPSAVRARLDANRLAVAGHSMGGGGTLRIAEQNPSLKAAVPLTPWHTDKTFNTSVPVLIVGAEADTVAPVSQHAIPFYQNLPSTTPKVYVELDNASHFAPNSNNAAISVYTISWMKLWVDNDTRYRQFLCNVNDPALSDFRTNNRHCQ"}, "B4": {"name": "unnamed (protein)", "chain": "MTAAAVSSRYYEETGPHAVTVEQGGPDHTLYYPSDLGAGGTQHPVVIWGNGTGATPETYDEGLRHFASWGFVVAAANTTQAGSGKEMLAGARFLIEEDQRSGSVFYGKIDETRIGAAGHSQGGGGAIAAGADPIVDTTIPIQPGPQGTVGDLHGPAFFISGQFDWIVPSSYVYSRYLGADHVPAVFGELRGADHFFPGDTRLRLIGATTAWFRFHLMADENARGIFFGPSSTCGICTDTEAWSKVDRNAKAQAIPG"}, "B5": {"name": "unnamed (protein)", "chain": "MALVTALALVTGVGTAPAFADEIGQAPTAANITGDGSFSTSSSAIFGQSGFGGGTAYYPNTAGKYPVVAFAPGFLSDWNALNWLGPRVASWGFVVVGVNTNTPFDFPDARGDQLLAALNWAVNSAPAAVRDKADGSRRGVSGWSMGGGGTLEALAKDTTGTVKAGVPLAPWHTNKTWSKVTEPVFIIGGQNDSVAAPASHAIPFYNSLGGPKSYLERAGADHFFPTKSNGTVSRAVVSFFKRHVSADTRFTPFLCGFSGLDVSNFRSNSC"}, "B6": {"name": "unnamed (protein)", "chain": "MNFPRASRLMQAAVLGGLMAVSAAATAQTNPYARGPNPTAASLEASAGPFTVRSFTVSRPSGYGAGTVYYPTNAGGTVGAIAIVPGYTARQSSINWWGPRLASHGFVVITIDTNSTLDQPSSRSSQQMAALRQVASLNGTSSSPIYGKVDTARMGVMGWSMGGGGSLISAANNPSLKAAAPQAPWNSSTNFSSVTVPTLIFACENDSIAPVNSHALPFYNSMSRNAKQFLEINGGSHSCANSGNSNQALIGKKGVAWMKRFMDNDTRYSTFACQNPNSTRVSDFRTANCS"}},
  "data": [
    {"substrate": "not listed separately", "experiment": "Proxy for plastic degradation [UPLC/UHPLC]", "conditions": "pH 9; 30 °C", "units": {"Proxy for plastic degradation": "µM"}, "values": [
      {"protein": "B1", "Proxy for plastic degradation": 11.2},
      {"protein": "B4", "Proxy for plastic degradation": 13.9},
      {"protein": "B5", "Proxy for plastic degradation": 65.5},
      {"protein": "B6", "Proxy for plastic degradation": 17.3}
    ]},
    {"substrate": "not listed separately", "experiment": "Proxy for plastic degradation [UPLC/UHPLC]", "conditions": "pH 9; 40 °C", "units": {"Proxy for plastic degradation": "µM"}, "values": [
      {"protein": "B1", "Proxy for plastic degradation": 22.8},
      {"protein": "B4", "Proxy for plastic degradation": 14.7},
      {"protein": "B5", "Proxy for plastic degradation": 759},
      {"protein": "B6", "Proxy for plastic degradation": 64.7}
    ]},
    {"substrate": "not listed separately", "experiment": "Proxy for plastic degradation [UPLC/UHPLC]", "conditions": "pH 9; 50 °C", "units": {"Proxy for plastic degradation": "µM"}, "values": [
      {"protein": "B1", "Proxy for plastic degradation": 44.2},
      {"protein": "B4", "Proxy for plastic degradation": 10.6},
      {"protein": "B5", "Proxy for plastic degradation": 3600},
      {"protein": "B6", "Proxy for plastic degradation": 46.9}
    ]},
    {"substrate": "not listed separately", "experiment": "Proxy for plastic degradation [UPLC/UHPLC]", "conditions": "pH 9; 55 °C", "units": {"Proxy for plastic degradation": "µM"}, "values": [
      {"protein": "B1", "Proxy for plastic degradation": 26.1},
      {"protein": "B4", "Proxy for plastic degradation": 15.5},
      {"protein": "B5", "Proxy for plastic degradation": 596},
      {"protein": "B6", "Proxy for plastic degradation": 27.4}
    ]},
    {"substrate": "not listed separately", "experiment": "Proxy for plastic degradation [UPLC/UHPLC]", "conditions": "pH 9; 60 °C", "units": {"Proxy for plastic degradation": "µM"}, "values": [
      {"protein": "B1", "Proxy for plastic degradation": 19.7},
      {"protein": "B4", "Proxy for plastic degradation": 15.3},
      {"protein": "B5", "Proxy for plastic degradation": 167},
      {"protein": "B6", "Proxy for plastic degradation": 17.4}
    ]},
    {"substrate": "p-NP-C4", "experiment": "not given", "conditions": "50 °C; part of the chain shown", "units": {"Km": "mM", "kcat": "s⁻¹", "kcat/Km": "s⁻¹ M⁻¹"}, "values": [
      {"protein": "B2", "Km": 1.57, "kcat": 0.215, "kcat/Km": 137}
    ]},
    {"substrate": "p-NP-C4", "experiment": "not given", "conditions": "pH 8; 65 °C", "units": {"Km": "mM", "kcat": "s⁻¹", "kcat/Km": "s⁻¹ M⁻¹"}, "values": [
      {"protein": "B3", "Km": 1.05, "kcat": 0.186, "kcat/Km": 177}
    ]},
    {"substrate": "PET", "experiment": "Proxy for plastic degradation [kcat/Km (catalytic efficiency)] (mM⁻¹s⁻¹)", "conditions": "pH 8", "values": [
      {"protein": "B3", "Proxy for plastic degradation": 0.208}
    ]},
    {"substrate": "PET", "experiment": "Proxy for plastic degradation [Released monomer concentration (HPLC/LC-MS) (TPA+MHET)]", "conditions": "30 °C", "units": {"Proxy for plastic degradation": "µM"}, "values": [
      {"protein": "B3", "Proxy for plastic degradation": 44.7}
    ]},
    {"substrate": "PET", "experiment": "Proxy for plastic degradation [Released monomer concentration (HPLC/LC-MS) (TPA+MHET)]", "conditions": "40 °C", "units": {"Proxy for plastic degradation": "µM"}, "values": [
      {"protein": "B3", "Proxy for plastic degradation": 115}
    ]},
    {"substrate": "PET", "experiment": "Proxy for plastic degradation [Released monomer concentration (HPLC/LC-MS) (TPA+MHET)]", "conditions": "50 °C", "units": {"Proxy for plastic degradation": "µM"}, "values": [
      {"protein": "B3", "Proxy for plastic degradation": 628}
    ]},
    {"substrate": "PET", "experiment": "Proxy for plastic degradation [Released monomer concentration (HPLC/LC-MS) (TPA+MHET)]", "conditions": "55 °C", "units": {"Proxy for plastic degradation": "µM"}, "values": [
      {"protein": "B3", "Proxy for plastic degradation": 2030}
    ]},
    {"substrate": "PET", "experiment": "Proxy for plastic degradation [Released monomer concentration (HPLC/LC-MS) (TPA+MHET)]", "conditions": "60 °C", "units": {"Proxy for plastic degradation": "µM"}, "values": [
      {"protein": "B3", "Proxy for plastic degradation": 2450}
    ]},
    {"substrate": "PET", "experiment": "Proxy for plastic degradation [Released monomer concentration (HPLC/LC-MS) (TPA+MHET)]", "conditions": "65 °C", "units": {"Proxy for plastic degradation": "µM"}, "values": [
      {"protein": "B3", "Proxy for plastic degradation": 3150}
    ]},
    {"substrate": "p-NP-C4", "experiment": "not given", "conditions": "50 °C", "units": {"Km": "mM", "kcat": "s⁻¹", "kcat/Km": "s⁻¹ M⁻¹"}, "values": [
      {"protein": "B5", "Km": 1.04, "kcat": 0.27, "kcat/Km": 260}
    ]}
  ]
}
